The text below walks through data of paper PMC6210652, “Virus Sensor RIG-I Represses RNA Interference by Interacting with TRBP through LGP2 in Mammalian Cells”.

Test in all cases: EMSA; 3 uM protein, 0.5 nM siRNA, 1.5 mM Mg2+; 20 mM Tris pH 8.0, 1.5 mM MgCl2, 50 mM NaCl, 1.5 mM DTT, 100 ng/uL sonicated salmon sperm DNA, 5% glycerol, 0.4 U/mL RNasin; 30 min on ice; 9% PAGE in 0.25x TBE
Settings in all cases: protein: recombinant; label: 5'-32P on guide strand; siRNA duplex 21-nt strands, 19 bp, 3' overhangs 2 nt on both strands
For orientation: Mobility shift assays separate free from complexed probe on a gel.

One series deals with T1, MDA5 (UniProt Q9BYX4 1-1025).
T1 sequence: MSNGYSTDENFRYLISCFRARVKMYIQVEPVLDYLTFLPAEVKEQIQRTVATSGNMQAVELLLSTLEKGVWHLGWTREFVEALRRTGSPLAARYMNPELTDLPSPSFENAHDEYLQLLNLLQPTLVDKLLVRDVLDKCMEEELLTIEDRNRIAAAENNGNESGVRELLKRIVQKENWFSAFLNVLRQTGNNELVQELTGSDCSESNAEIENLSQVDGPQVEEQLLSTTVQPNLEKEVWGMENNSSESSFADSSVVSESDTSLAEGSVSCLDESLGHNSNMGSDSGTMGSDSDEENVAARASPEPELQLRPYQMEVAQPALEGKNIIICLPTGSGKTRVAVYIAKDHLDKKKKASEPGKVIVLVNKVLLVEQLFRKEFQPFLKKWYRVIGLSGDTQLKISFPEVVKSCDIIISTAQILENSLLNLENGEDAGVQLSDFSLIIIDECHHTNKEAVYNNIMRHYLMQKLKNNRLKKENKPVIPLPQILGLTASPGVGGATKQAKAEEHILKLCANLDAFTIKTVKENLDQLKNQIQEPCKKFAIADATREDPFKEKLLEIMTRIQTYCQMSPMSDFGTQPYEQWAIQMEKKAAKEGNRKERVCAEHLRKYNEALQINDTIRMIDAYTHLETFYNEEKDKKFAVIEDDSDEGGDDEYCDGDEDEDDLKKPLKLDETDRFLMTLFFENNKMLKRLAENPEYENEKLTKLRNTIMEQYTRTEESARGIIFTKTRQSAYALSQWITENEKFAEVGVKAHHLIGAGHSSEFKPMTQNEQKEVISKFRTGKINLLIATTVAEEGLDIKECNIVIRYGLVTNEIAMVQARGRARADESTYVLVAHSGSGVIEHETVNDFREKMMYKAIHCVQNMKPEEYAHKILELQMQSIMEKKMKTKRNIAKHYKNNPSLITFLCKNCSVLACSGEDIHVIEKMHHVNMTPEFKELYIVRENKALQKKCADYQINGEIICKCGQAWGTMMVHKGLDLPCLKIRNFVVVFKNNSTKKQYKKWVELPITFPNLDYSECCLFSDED

The next series deals with T2, RIG-I (UniProt O95786 1-925).
T2 sequence: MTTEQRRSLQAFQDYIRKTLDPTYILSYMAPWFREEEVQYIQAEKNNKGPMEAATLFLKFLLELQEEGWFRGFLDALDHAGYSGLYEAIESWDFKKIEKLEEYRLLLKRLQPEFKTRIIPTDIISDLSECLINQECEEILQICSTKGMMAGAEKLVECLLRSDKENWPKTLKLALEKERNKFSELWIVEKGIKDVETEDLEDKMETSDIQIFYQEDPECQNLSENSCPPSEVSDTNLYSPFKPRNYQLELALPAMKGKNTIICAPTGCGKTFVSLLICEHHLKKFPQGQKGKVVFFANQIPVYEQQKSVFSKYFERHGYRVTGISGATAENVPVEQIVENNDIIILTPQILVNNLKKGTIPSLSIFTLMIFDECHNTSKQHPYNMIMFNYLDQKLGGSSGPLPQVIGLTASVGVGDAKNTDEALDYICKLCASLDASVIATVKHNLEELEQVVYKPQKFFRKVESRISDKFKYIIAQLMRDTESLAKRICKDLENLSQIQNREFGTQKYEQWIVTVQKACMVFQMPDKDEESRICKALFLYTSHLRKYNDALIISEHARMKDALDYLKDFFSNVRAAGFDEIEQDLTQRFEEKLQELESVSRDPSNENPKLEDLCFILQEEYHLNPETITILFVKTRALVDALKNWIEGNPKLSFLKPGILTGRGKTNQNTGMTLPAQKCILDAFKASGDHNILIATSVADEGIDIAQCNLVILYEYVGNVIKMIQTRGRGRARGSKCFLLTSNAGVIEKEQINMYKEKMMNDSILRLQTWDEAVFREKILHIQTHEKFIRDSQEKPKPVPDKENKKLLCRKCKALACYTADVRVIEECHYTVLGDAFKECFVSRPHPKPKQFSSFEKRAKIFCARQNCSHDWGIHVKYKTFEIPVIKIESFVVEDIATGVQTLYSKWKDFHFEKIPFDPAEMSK

Another series deals with T3, LGP2 (UniProt Q96C10 1-678).
T3 sequence: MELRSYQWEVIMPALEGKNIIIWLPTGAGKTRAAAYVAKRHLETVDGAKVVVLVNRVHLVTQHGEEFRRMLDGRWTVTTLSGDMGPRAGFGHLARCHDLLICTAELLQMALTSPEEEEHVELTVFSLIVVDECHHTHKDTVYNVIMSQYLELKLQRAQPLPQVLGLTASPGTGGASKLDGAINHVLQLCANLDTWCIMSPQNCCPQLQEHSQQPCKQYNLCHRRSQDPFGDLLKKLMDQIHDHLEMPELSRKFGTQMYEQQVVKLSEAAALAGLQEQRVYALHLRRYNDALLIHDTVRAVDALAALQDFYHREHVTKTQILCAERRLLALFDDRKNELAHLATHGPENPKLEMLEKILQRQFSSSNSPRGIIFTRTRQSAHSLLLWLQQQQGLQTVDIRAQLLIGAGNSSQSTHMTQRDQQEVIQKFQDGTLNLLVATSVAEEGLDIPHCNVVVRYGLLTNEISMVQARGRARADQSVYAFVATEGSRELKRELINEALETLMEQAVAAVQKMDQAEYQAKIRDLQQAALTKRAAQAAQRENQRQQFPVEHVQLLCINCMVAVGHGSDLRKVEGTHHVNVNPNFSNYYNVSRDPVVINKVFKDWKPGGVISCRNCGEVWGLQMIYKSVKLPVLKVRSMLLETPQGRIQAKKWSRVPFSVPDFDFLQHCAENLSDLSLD

B1: siLuc-36 (dsRNA)
RNA 1: UCUUCCAGCGGAUAGAAUGGC
RNA 2: CAUUCUAUCCGCUGGAAGAUG
B1: the binding result with MDA5 is “no binding”; with RIG-I it was “binds”; with LGP2 it was “binds”.
